B1: HAV FH1 (nucleic acid)
DNA: CTTGATACCTCACCGCCGTTTGCCTAGGCTATAGGCTAAATTTCCCTTTCCCTGTCCTTTCCCTATTTCCTTTTGTTTTGTTTGTAAATATTAATTCCTGCAGGTTCAGGGTTCTTTAATCTGTTTCTCTATAAGAACACTCAATTTTCACGCTTTCTGTCTCCTTTCTTCCAGGGCTCTCCCCTTGCCCTAGGCTCTGGCCGTTGCGCCCGGCGGGGTCAACTCCATGATTAGCATGGAGCTGTAGGAGTCTAAATTGGGGACGCAGATGTTTGGGACGTCGCCTTGCAGTGTTAACTTGGCTTTCATGAACCTCTTTGATCTTCCACAAGGGGTAGGCTACGGGTGAAACCTCTTAGGCTAATACTTCTATGAAGAGATGCCTTGGATAGGGTAACAGCGGCGGATATTGGTGAGTTGTTAAGACAAAAACCATTCAACGCCGAAGGACTGGCTCTCATCCAGTGGATGCATTGAGGGAATTGATTGTCAGGGCTGTCTCTAGGTTTAATCTCAGACCTCTCTGTGCTTAGGGCAAACACTATTTGGCCTTAAATGGGATCCTGTGAGAGGGGGTCCCTCCATTGACAGCTGGACTGTTCTTTGGGGCCTTATGTGGTGTTTGCCTCTGAGGTACTCAGGGGCATTTAGGTTTTTCCTCATTCTTAAACAATA
modifications: Hepatovirus A
B2: Parechovirus C (nucleic acid)
DNA: CGGTCATCCCCCTTTCCCCACAGCCGGTGTGGGTTCTAATCGGCTCCTACTAAACACCTAAGCATCACTGCGCCTCTATCTCTCCTATCCACAGGTCTAAGACGCTTGGAATAAGACATGTGGGTGCAATAGGAAGATTAGCTAGTCCAATCTCTCCTTCCAGCTACGCTTCTCCCTTCGATGAGCGTAGGGGGGGCCCCCACCTCCCTCATCTCTGGATAGGGCTCTTGCTACGGGGCTTTCCCGTCTGGACCAGCAGGCCCACTGGTGCGCTTCCATTCAAGTTTAGTGTGCATTACTGTCTGAAATATTGCTTTGCTAGGATCTAGTGTAGCGACCTGCATATTGCCAGCGGACTTCCCCACATGGTAACATGTGCCTCTGGGCCCAAAAGGCATGTCTTTGACCGTATGCAGTACAACCCCAGTATAGGTCCTTTCTATGGCAGTATGGATCTCAGTGATGAGTCTATACAGAATATGGAAGTGGTTCGGATATGTCAGCCCGAAGGATGCCCAGAAGGTACCCGCAGATAACCTTAAGAGACTGTGGATCTGATCTGGGGCCCACCACCTTCGGGTGGGTAGAAGCTAACCATGCCTTGGGTTAAAAAACGTCTAAGGGCTGACCAGACCCGGGGGATCCGGGTTTTCCCTATCTTGACCTACTCTAATC
modifications: Parechovirus C
B3: Parechovirus F (nucleic acid)
DNA: GGTCGGGGAGATGTGTTCATGATCGGTTAACACCATCATGGATCATCTCTCCCCGACCTCTTTTTGACCCAGCTATGGGTTAAATAGTACTTTTCTTTTCTCTTTTGCTTTCTTTTGTGTTTTGTTTGTTTTGCAACATATAACAAGCATTTTATCAGTATTAGTGTCTGCAACTGTATAACAAGCAAGGTGGAGCAATCATGCGAGTATATCTCAATTGAATTGTGACACACAAGTGTGCACTATGTGGAATAAATGCCATTTTGGCCAAACCTGGTTAGCCAGACCAGTAGTAGGACAATTTGGCACCCTTAGTGGGCGCGACCTAGATGCTAGGGATGAGCAAACCTATTTCCCCTGAGTACAGGGGCTCTCCTTCACCTCTACATTTTGGACCTCTTTTTGAGTATCCTCGATAGAAGGTGAAGTGACGGTGTACCGGATGGTTAATTGATCTCATTGCTGGGTGACAGCCCGCTAGGACCAGGCAGCATCTTTGTATGGACCTGTACATGTAAC
modifications: Parechovirus F
B4: Parechovirus A3 (nucleic acid, listed as Parechovirus sp.)
DNA: AGAGTCCTTTTCCCAGCCAGAGGTGGCTGGTTAAATAATACCTACTGTAACAAAACATCTAAGATGTAACAACCACACACCTGGTCTCCACTGGCCGAAGGCAACTAGCAATAAGGCAGGTGGGTTCAGACGCTTAAAGTGTGTTGTACATATTCTTTTCTAACCTGTGTTTTACACAGGGTGGCAGATGGCGTGCCATAACTCTAACAGTGAGATACCACGCTTGTGGACCTTATGCTCACACAGCCATCCTCTAGTAAGTTTGTAAGATGTCTGATGACGTGTGGGAACCTGTTGGAGATAACAGTTTGCTGCAAAGCATCCCACTGCCAGCGGATCTACATCTGGTAACAGATGCCTCTGGGGCCAAAAGCCAAGGTTTAACAGACCCTTTGGGATTGGTTCAAACCTGAACTGTTATGGAAGACATTTAGTACCTGCTGATTTGGTAGTAATGCAAACACTAGTTGTAAGGCCCACGAAGGATGCCCAGAAGGTACCCGTAGGTAACAAGTGGCACTATGGATCTGATCTGGGGCCAGCTACCTCTATCTTGGTGAGTTGGTTAAAAAACGTCTAGTGGGCCAAACCCAGGGGGGATCCTGGTTTCTTTTTAATTTAAGTAATCACT
B5: Parechovirus A2 (nucleic acid, listed as Parechovirus sp.)
DNA: GCCGTCGGGCCTTACACCCCGACTTGCTGAGTTTCTCTAGGAGAGTCCCTTTCCCAGCCAGAGGTGGCTGGTCAAACAATACCAAACGTAACTAAACATCTAAGATAACATAGCCCTATGCCTGGTCTCCACCAGTTGAAGGCATCTTGCAATAAAATGGGTGGATTAAGACGCTTAAAGCATGGAGTCAATTATCTTTTCTAACTAGTGATCTTCACTGGGTGGCAGATGGCGTGCCATAACTCTATTAGTGGGATACCACGCTCGTGGATCTTATGCCCACACAGCCATCCTCTAGTAAGTTTGCAAGGTGTCTGATGAGGCGTGGGAACTTATTGGAAATAATTACTTGCTGCGAAGCATCCTACTGCCAGCGGATCAACACCTGGTAACAGGTGCCCCTGGGGCCAAAAGCCACGGTTTAACAGACCCTTTAGGATTGGTTAAAACCTGAGTAATTATGGAAGATACTTAGTACCTACCAACTTGGTAACAGTGCAAACACTAGTTGTAAGGCCCACGAAGGATGCCCAGAAGGTACCCGCAGGTAACAAGAGACACTGTGGATCTGATCTGGGGCCACCTACCTCTATCCTGGTGAGGTGGTTAAAAAACGTCTAGTGGGCCAAACCCAGGGGGGATCCCTGGTTTCCTTATTTTAGTGTAAATGTCATT
B6: Parechovirus D (nucleic acid)
DNA: ACATGGGGCAGGTGTGCTGTGCCAAGAGCAACACTACGGTGGCCGAGCCGATGGTTCGTCACCACGTAGTAGGACTCCGTAGTGCTTGGTTACGGCGGACGTAAGTCAGTTGAGTGATGTCTAAGTGGCAAACCATGAGTACATGGTAACCTTGTGTGGACTCGCGGGACGGAATTTCCTATCCCATTGACTCCTTGTAGCAAGGTGGGTATACCCAACCACAATGGCAGCACCCTGGGTGGGAACCCAGGGGCCTGGATTAGTATCCAGTCACACAGCCTGATAGGGTGGCGGCTCAGCCACTGACCAGCGTCTCTAAATAATTGTGAGCTGTTCATGCACC
modifications: Parechovirus D
B7: Ljungan Virus 87-012 (nucleic acid)
DNA: CTCATTGCCCACACCTGGTTGGTTCCCAGGTTCATACAATAACCATCAATAAACTTTTAACATCTAAGATAGTATTATCCCATACTAGACTGGACGAAGCCGCTTGGAATAAGTCTAGTCTTATCTTGTATGTGTCCTGCACTGAACTTGTTTCTGTCTCTGGAGTGCTCTACACTTCAGTAGGGGCTGTACCCGGGCGGTCCCACTCTTCACAGGAATCTGCACAGGTGGCTTTCACCTCTGGACAGTGCATTCCACACCCGCTCCACGGTAGAAGATGATGTGTGTCTTTGCTTGTGAAAAGCTTGTGAAAATCGTGTGTAGGCGTAGCGGCTACTTGAGTGCCAGCGGATTACCCCTAGTGGTAACACTAGCCTCTGGGCCCAAAAGGCATGTCATTTGACCACTCAGGTACACAACCCCAGTGATGCACACGCTTAGTAATGGCTTAGTAACAAACATTGATTGATCATTTGAAAGCTGTTAGGAGGTTTAGGTATGACGGGCTGAAGGATGCCCTGAAGGTACCCATAGGTAACCTTAAGCGACTATGGATCTGATCAGGGGCCCACCATGTAACACATGGGTAGAAGTCTTCGGACCTTGGGTTAAAAAACGTCTAGGCCCGCCCCCCACAGGGATGTGGGGTTTCCCTTATAACCCCAATATTGTATA
B8: HAV HM175 (nucleic acid)
DNA: CGCCGTTTGCCTAGGCTATAGGCTAAATTTTCCCTTTCCCTTTTCCCTTTCCTATTCCCTTTGTTTTGCTTGTAAATATTGATTTGTAAATATTGATTCCTGCAGGTTCAGGGTTCTTAAATCTGTTTCTCTATAAGAACACTCATTTCACGCTTTCTGTCTTCTTTCTTCCAGGGCTCTCCCCTTGCCCTAGGCTCTGGCCGTTGCGCCCGGCGGGGTCAACTCCATGATTAGCATGGAGCTGTAGGAGTCTAAATTGGGGACACAGATGTTTGGAACGTCACCTTGCAGTGTTAACTTGGCTTTCATGAATCTCTTTGATCTTCCACAAGGGGTAGGCTACGGGTGAAACCTCTTAGGCTAATACTTCTATGAAGAGATGCCTTGGATAGGGTAACAGCGGCGGATATTGGTGAGTTGTTAAGACAAAAACCATTCAACGCCGGAGGACTGACTCTCATCCAGTGGATGCATTGAGTGGATTGACTGTCGGGGCTGTCTTTAGGCTTAATTCCAGACCTCTCTGTGCTTGGGGCAAACATCATTTGGCCTTAAATGGGATTCTGTGAGAGGGGATCCCTCCATTGCCAGCTGGACTGTTCTTTGGGGCCTTATGTGGTGTTTGCCGCTGAGGTACTCAGGGGCATTTAGGTTTTTCCTCATTCTTAAATAATA
modifications: Hepatovirus A
B9: Halastavi arva (1x mut) (nucleic acid)
DNA: CTTGATTCTAACCTTGCCGTATGGTGCCCTAACGGGTTCATTTAATCATGCGATGAGGGTTGCTATACCGCATCCATTCTAAGGCGATTCAATGCTTCATTTAGGAATTTTGTTGACGATTAAAAGGTACCCCCACAAAAACAAAACCAATCTTACTTGATTTTCGTTTTAACTGACCACTGCGATCCCAAATTTTCGCCTTCTTATCAAAGTATGTTGTGTTCTTTGGGTGTACAACCTGAGAACTTGTCTACAACTACATATTACTCGAGGAAGAAATTCGGTTTAAGCCGTGCCTTCTCACGTTTAGTATATCTATCTGGACACACCTTCTTCATCTTCTAATCCCCATCTAGTCTCCTGATCAGAGACGTCGTTATTAACAAATAACCCCCCTTGTTAATAAGAGACAAAGTACAATCAAGCTAAGTTCTCTTGGAGTTCCTGTAGGAACTTAGCCATTGTGATAGAGTCATAAGTCTATGTGCATAGACAGCTCTAGCTCACCATTTCCTTCCCAACCCATCTTTTCATCAGCTTAACTCTATGAATCCGATGCAAAAACCATTCTAACATCTTATGGTGCTTTCCAAGCCAAATGAGAGCTCACTCTTTTGAGCCGCTATTTAATGGACAATAAACGTTTTATAGTGTACATCATATTGTAAAAACAAA

Each molecule was assayed on HEK293 cells. Settings: luminescence from secreted Gluc in supernatant 24 hours after transfection of HEK293 cells; circular RNA encoding Gluc with the named IRES (UTR truncated to 675 nt).
Assay type: cell-based, human

Molecule	Expression
B1	1.24E+05
B2	1.24E+06
B3	6.56E+05
B4	3.58E+06
B5	1.80E+07
B6	3.10E+05
B7	2.00E+06
B8	4.96E+05
B9	9.46E+04

Source: US20230226096A1 (Orna Therapeutics, Inc., priority 2020, published 2023)
